Laboratory results: the Human Domainome abundance scans (Beltran et al. 2025)
± gives the uncertainty stated by the source.

B1: Cyclin-F, residues 28 to 80; numbered along this chain, P41002 (parent)
chain: RNLTILSLPEDVLFHILKWLSVEDILAVRAVHSQLKDLVDNHASVWACASFQE

Variants of: B1
Test: abundance fitness (aPCA) (normalised: wild type 0, dead -1); higher = more abundant; growth selection in yeast, the domain comes from the species named
Settings: Homo sapiens

For RNGTILSLPEDVLFHILKWLSVEDILAVRAVHSQLKDLVDNHASVWACASFQE, which abundance fitness is on record?
Its abundance fitness is -0.435 ± 0.079.

For RNQTILSLPEDVLFHILKWLSVEDILAVRAVHSQLKDLVDNHASVWACASFQE, which abundance fitness is on record?
The abundance fitness was -0.863 ± 0.31.

Which abundance fitness does the source give for RNSTILSLPEDVLFHILKWLSVEDILAVRAVHSQLKDLVDNHASVWACASFQE here?
The abundance fitness was -0.09 ± 0.098.

For RNETILSLPEDVLFHILKWLSVEDILAVRAVHSQLKDLVDNHASVWACASFQE, which abundance fitness is on record?
The abundance fitness was -0.727 ± 0.16.

With RNITILSLPEDVLFHILKWLSVEDILAVRAVHSQLKDLVDNHASVWACASFQE as the variant, how does the abundance fitness read?
The abundance fitness was -0.112 ± 0.17.

For RNDTILSLPEDVLFHILKWLSVEDILAVRAVHSQLKDLVDNHASVWACASFQE, which abundance fitness is on record?
The abundance fitness was -0.598 ± 0.21.

For RNKTILSLPEDVLFHILKWLSVEDILAVRAVHSQLKDLVDNHASVWACASFQE, which abundance fitness is on record?
The abundance fitness was -0.354 ± 0.16.

For RNRTILSLPEDVLFHILKWLSVEDILAVRAVHSQLKDLVDNHASVWACASFQE, which abundance fitness is on record?
The abundance fitness was -0.134 ± 0.077.

With RNYTILSLPEDVLFHILKWLSVEDILAVRAVHSQLKDLVDNHASVWACASFQE as the variant, how does the abundance fitness read?
The abundance fitness was 0.109 ± 0.18.

For RNTTILSLPEDVLFHILKWLSVEDILAVRAVHSQLKDLVDNHASVWACASFQE, which abundance fitness is on record?
The abundance fitness was -0.437 ± 0.15.

Which abundance fitness does the source give for RNNTILSLPEDVLFHILKWLSVEDILAVRAVHSQLKDLVDNHASVWACASFQE here?
The abundance fitness was -0.337 ± 0.2.

Which abundance fitness does the source give for RNHTILSLPEDVLFHILKWLSVEDILAVRAVHSQLKDLVDNHASVWACASFQE here?
The abundance fitness was -0.283 ± 0.15.

With RNATILSLPEDVLFHILKWLSVEDILAVRAVHSQLKDLVDNHASVWACASFQE as the variant, how does the abundance fitness read?
Its abundance fitness is -0.708 ± 0.13.

With RNPTILSLPEDVLFHILKWLSVEDILAVRAVHSQLKDLVDNHASVWACASFQE as the variant, how does the abundance fitness read?
Its abundance fitness is -0.322 ± 0.13.

With RNFTILSLPEDVLFHILKWLSVEDILAVRAVHSQLKDLVDNHASVWACASFQE as the variant, how does the abundance fitness read?
Its abundance fitness is -0.078 ± 0.17.

With RNWTILSLPEDVLFHILKWLSVEDILAVRAVHSQLKDLVDNHASVWACASFQE as the variant, how does the abundance fitness read?
Its abundance fitness is -0.596 ± 0.1.

With RHLTILSLPEDVLFHILKWLSVEDILAVRAVHSQLKDLVDNHASVWACASFQE as the variant, how does the abundance fitness read?
Its abundance fitness is -0.065 ± 0.14.

For RWLTILSLPEDVLFHILKWLSVEDILAVRAVHSQLKDLVDNHASVWACASFQE, which abundance fitness is on record?
Its abundance fitness is -0.871 ± 0.13.

Which abundance fitness does the source give for RILTILSLPEDVLFHILKWLSVEDILAVRAVHSQLKDLVDNHASVWACASFQE here?
The abundance fitness was -0.618 ± 0.23.

With RFLTILSLPEDVLFHILKWLSVEDILAVRAVHSQLKDLVDNHASVWACASFQE as the variant, how does the abundance fitness read?
Its abundance fitness is -0.407 ± 0.19.

With RALTILSLPEDVLFHILKWLSVEDILAVRAVHSQLKDLVDNHASVWACASFQE as the variant, how does the abundance fitness read?
The abundance fitness was -0.492 ± 0.14.

For RYLTILSLPEDVLFHILKWLSVEDILAVRAVHSQLKDLVDNHASVWACASFQE, which abundance fitness is on record?
The abundance fitness was -0.366 ± 0.14.

Which abundance fitness does the source give for RDLTILSLPEDVLFHILKWLSVEDILAVRAVHSQLKDLVDNHASVWACASFQE here?
The abundance fitness was -0.306 ± 0.19.

Which abundance fitness does the source give for RSLTILSLPEDVLFHILKWLSVEDILAVRAVHSQLKDLVDNHASVWACASFQE here?
The abundance fitness was -0.129 ± 0.085.

With RTLTILSLPEDVLFHILKWLSVEDILAVRAVHSQLKDLVDNHASVWACASFQE as the variant, how does the abundance fitness read?
The abundance fitness was -0.168 ± 0.11.

For RCLTILSLPEDVLFHILKWLSVEDILAVRAVHSQLKDLVDNHASVWACASFQE, which abundance fitness is on record?
The abundance fitness was -0.357 ± 0.12.

With RRLTILSLPEDVLFHILKWLSVEDILAVRAVHSQLKDLVDNHASVWACASFQE as the variant, how does the abundance fitness read?
The abundance fitness was -0.078 ± 0.085.

Which abundance fitness does the source give for RQLTILSLPEDVLFHILKWLSVEDILAVRAVHSQLKDLVDNHASVWACASFQE here?
Its abundance fitness is -0.331 ± 0.14.

With RELTILSLPEDVLFHILKWLSVEDILAVRAVHSQLKDLVDNHASVWACASFQE as the variant, how does the abundance fitness read?
Its abundance fitness is -0.348 ± 0.19.

With RKLTILSLPEDVLFHILKWLSVEDILAVRAVHSQLKDLVDNHASVWACASFQE as the variant, how does the abundance fitness read?
The abundance fitness was -0.182 ± 0.13.

With RPLTILSLPEDVLFHILKWLSVEDILAVRAVHSQLKDLVDNHASVWACASFQE as the variant, how does the abundance fitness read?
The abundance fitness was -0.185 ± 0.11.

With RVLTILSLPEDVLFHILKWLSVEDILAVRAVHSQLKDLVDNHASVWACASFQE as the variant, how does the abundance fitness read?
Its abundance fitness is -0.089 ± 0.11.

With RNLTVLSLPEDVLFHILKWLSVEDILAVRAVHSQLKDLVDNHASVWACASFQE as the variant, how does the abundance fitness read?
Its abundance fitness is -0.243 ± 0.087.

Which abundance fitness does the source give for RNLTTLSLPEDVLFHILKWLSVEDILAVRAVHSQLKDLVDNHASVWACASFQE here?
The abundance fitness was -0.697 ± 0.17.

Which abundance fitness does the source give for RNLTKLSLPEDVLFHILKWLSVEDILAVRAVHSQLKDLVDNHASVWACASFQE here?
Its abundance fitness is -0.758 ± 0.19.

For RNLTDLSLPEDVLFHILKWLSVEDILAVRAVHSQLKDLVDNHASVWACASFQE, which abundance fitness is on record?
Its abundance fitness is -0.868 ± 0.14.

With RNLTLLSLPEDVLFHILKWLSVEDILAVRAVHSQLKDLVDNHASVWACASFQE as the variant, how does the abundance fitness read?
Its abundance fitness is 0.12 ± 0.091.

Which abundance fitness does the source give for RNLTMLSLPEDVLFHILKWLSVEDILAVRAVHSQLKDLVDNHASVWACASFQE here?
Its abundance fitness is -0.254 ± 0.12.

Which abundance fitness does the source give for RNLTNLSLPEDVLFHILKWLSVEDILAVRAVHSQLKDLVDNHASVWACASFQE here?
Its abundance fitness is -0.907 ± 0.19.

Which abundance fitness does the source give for RNLTELSLPEDVLFHILKWLSVEDILAVRAVHSQLKDLVDNHASVWACASFQE here?
Its abundance fitness is -0.679 ± 0.21.

For RNLTPLSLPEDVLFHILKWLSVEDILAVRAVHSQLKDLVDNHASVWACASFQE, which abundance fitness is on record?
Its abundance fitness is -0.559 ± 0.15.

Which abundance fitness does the source give for RNLTALSLPEDVLFHILKWLSVEDILAVRAVHSQLKDLVDNHASVWACASFQE here?
The abundance fitness was -0.657 ± 0.11.

With RNLTGLSLPEDVLFHILKWLSVEDILAVRAVHSQLKDLVDNHASVWACASFQE as the variant, how does the abundance fitness read?
Its abundance fitness is -0.78 ± 0.097.

With RNLTFLSLPEDVLFHILKWLSVEDILAVRAVHSQLKDLVDNHASVWACASFQE as the variant, how does the abundance fitness read?
The abundance fitness was -0.254 ± 0.16.

Which abundance fitness does the source give for RNLTWLSLPEDVLFHILKWLSVEDILAVRAVHSQLKDLVDNHASVWACASFQE here?
Its abundance fitness is -0.615 ± 0.15.

Which abundance fitness does the source give for RNLTSLSLPEDVLFHILKWLSVEDILAVRAVHSQLKDLVDNHASVWACASFQE here?
Its abundance fitness is -1.04 ± 0.15.

For RNLTYLSLPEDVLFHILKWLSVEDILAVRAVHSQLKDLVDNHASVWACASFQE, which abundance fitness is on record?
Its abundance fitness is -0.544 ± 0.18.

With RNLTCLSLPEDVLFHILKWLSVEDILAVRAVHSQLKDLVDNHASVWACASFQE as the variant, how does the abundance fitness read?
Its abundance fitness is -0.692 ± 0.16.

Which abundance fitness does the source give for RNLTHLSLPEDVLFHILKWLSVEDILAVRAVHSQLKDLVDNHASVWACASFQE here?
Its abundance fitness is -0.771 ± 0.18.
